Measurements as given in the supplement of paper PMC10201428.
± gives the standard deviation of the averaged measurements.

B1: library; a variant is named by its letters at N, in order (parent)
chain: AATGTTGTTGATGCAACCATAAAGTGATATTTAATAATTATTTATAATCAGCAACTTAACCACAAAACAACCATATATTGATATNTCACAAAACAACCATAANTTGATATTTTTGTGAATCGAGTATTTCAGCAAAACTACTGCAGTAAGAA

Tests used:
[1] = variants of: B1; assay: relative integration efficiency (T-LR orientation) vs wild-type transposon end (log2 (normalized fold change)); transposon end mutated: left end; higher = more efficient transposition; details: with VchCAST RNA-guided transposition machinery (E. coli BL21(DE3) host, lacZ target)
Procedure, shortened: (§1)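 Co-transformation of E. coli BL21(DE3) combined a pUC57 mini-transposon donor, holding barcoded pools of 1549 left-end or 1849 right-end variants, with a T7-driven plasmid encoding a CRISPR array, tniQ-cas8-cas7-cas6 and tnsA-tnsB-tnsC. After plating with 0.1 mM IPTG at 37°C for 18 h, input plasmids and genomic integration junctions were PCR-amplified and Illumina-sequenced across two biological output replicates, with four reference barcodes. Relative integration efficiency is the normalised, log-transformed output/input barcode fold change.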

[2] = variants of: B1; assay: relative integration efficiency (T-RL orientation) vs wild-type transposon end (log2 (normalized fold change)); transposon end mutated: left end; higher = more efficient transposition; details: with VchCAST RNA-guided transposition machinery (E. coli BL21(DE3) host, lacZ target)
Procedure, shortened: as §1

CG T108A A109T T110A T111A
relative integration efficiency (log2) [1]: -1.21 ± 0.27 | relative integration efficiency (log2) [2]: -0.957 ± 0.51

CG T78G T79G
relative integration efficiency (log2) [1]: 0.377 ± 0.26 | relative integration efficiency (log2) [2]: 0.387 ± 0.84

CG T104A
relative integration efficiency (log2) [1]: -0.147 ± 0.15 | relative integration efficiency (log2) [2]: -0.341 ± 0.23

CG T104G
relative integration efficiency (log2) [1]: -0.2 ± 0.48 | relative integration efficiency (log2) [2]: -0.0872 ± 0.27

CG T104C
relative integration efficiency (log2) [1]: -0.483 ± 0.33 | relative integration efficiency (log2) [2]: -0.257 ± 0.037

AG T86G
relative integration efficiency (log2) [1]: 0.305 ± 0.13 | relative integration efficiency (log2) [2]: -0.271 ± 0.068

CT A21C A22C A23C G24T A75C T76G A77C T78G A101C A102C T104G
relative integration efficiency (log2) [2]: -7.99 ± 1.6

CG T38C A40G T42A A44T A47T T48A C49T G51C C52A A53G A54T C55T T56G
relative integration efficiency (log2) [2]: -5.99 ± 0.93

CG T110A T111A
relative integration efficiency (log2) [1]: -0.344 ± 0.074 | relative integration efficiency (log2) [2]: -0.513 ± 0.22

CG T79A G80C A81T T82A
relative integration efficiency (log2) [1]: -2.46 ± 2 | relative integration efficiency (log2) [2]: -1.87 ± 0.95

CG T100G A101C
relative integration efficiency (log2) [1]: -3.81 ± 1.3 | relative integration efficiency (log2) [2]: -2.16 ± 0.7

CG T6G G7T
relative integration efficiency (log2) [2]: -9.04 ± 0.91

AG T84G T86G C87A
relative integration efficiency (log2) [1]: 0.381 ± 0.25 | relative integration efficiency (log2) [2]: 0.0958 ± 0.22

CG T112A
relative integration efficiency (log2) [1]: -0.239 ± 0.61 | relative integration efficiency (log2) [2]: -0.304 ± 0.19

CG T112C
relative integration efficiency (log2) [1]: -0.138 ± 0.38 | relative integration efficiency (log2) [2]: -0.258 ± 0.13

CG T112G
relative integration efficiency (log2) [1]: -0.249 ± 0.13 | relative integration efficiency (log2) [2]: -0.63 ± 0.13

CG T78G T79G G80T A81C
relative integration efficiency (log2) [1]: -3.25 ± 1.3 | relative integration efficiency (log2) [2]: -2.44 ± 0.79

CG T116G G117T A118C A119C
relative integration efficiency (log2) [1]: -0.21 ± 0.42 | relative integration efficiency (log2) [2]: 0.0794 ± 0.11

CG T108G A109C T110G T111G
relative integration efficiency (log2) [1]: -2.71 ± 1.1 | relative integration efficiency (log2) [2]: -1.63 ± 0.69

CG G7C T8A
relative integration efficiency (log2) [2]: -6.52 ± 0.12

CG T116G G117T A118C A119C T120G C121A G122T A123C G124T T125G
relative integration efficiency (log2) [1]: -0.144 ± 0.39 | relative integration efficiency (log2) [2]: -0.0959 ± 0.032

CG T8G T9G
relative integration efficiency (log2) [2]: -6.84 ± 0.88

CG T114C
relative integration efficiency (log2) [1]: -0.293 ± 0.5 | relative integration efficiency (log2) [2]: -0.448 ± 0.095

CG T114A
relative integration efficiency (log2) [1]: -0.000535 ± 0.15 | relative integration efficiency (log2) [2]: -0.291 ± 0.097

CG T114G
relative integration efficiency (log2) [1]: -0.0542 ± 0.0021 | relative integration efficiency (log2) [2]: -0.0633 ± 0.064

CG T108G A109C
relative integration efficiency (log2) [1]: -0.995 ± 1 | relative integration efficiency (log2) [2]: -1.16 ± 0.59

CG T79G G80T
relative integration efficiency (log2) [1]: -0.966 ± 0.14 | relative integration efficiency (log2) [2]: -1.24 ± 0.76

CG T113G T114G G115T T116G G117T A118C A119C T120G C121A G122T A123C G124T T125G
relative integration efficiency (log2) [1]: -0.192 ± 0.1 | relative integration efficiency (log2) [2]: -0.0695 ± 0.04

CG T111G T112G T113G T114G
relative integration efficiency (log2) [1]: -0.443 ± 0.72 | relative integration efficiency (log2) [2]: -0.798 ± 0.34

AG T82G A83C T84G
relative integration efficiency (log2) [1]: -1.31 ± 0.38 | relative integration efficiency (log2) [2]: -1.7 ± 0.88

CG T116G
relative integration efficiency (log2) [1]: 0.159 ± 0.61 | relative integration efficiency (log2) [2]: 0.0899 ± 0.05

CG T116A
relative integration efficiency (log2) [1]: 0.317 ± 0.21 | relative integration efficiency (log2) [2]: 0.0633 ± 0.024

CG T116C
relative integration efficiency (log2) [1]: 0.235 ± 0.36 | relative integration efficiency (log2) [2]: -0.0857 ± 0.085

GG T82A A83T T84A
relative integration efficiency (log2) [1]: -0.904 ± 0.77 | relative integration efficiency (log2) [2]: -0.974 ± 0.49

CG T113G
relative integration efficiency (log2) [1]: 0.451 ± 0.17 | relative integration efficiency (log2) [2]: -0.0711 ± 0.12

CG T113C
relative integration efficiency (log2) [1]: 0.405 ± 0.02 | relative integration efficiency (log2) [2]: 0.263 ± 0.16

CG T113A
relative integration efficiency (log2) [1]: -0.342 ± 0.22 | relative integration efficiency (log2) [2]: -0.277 ± 0.047

CG G7T T8G T9G G10T
relative integration efficiency (log2) [2]: -7.84 ± 0.54

CG A19C A73C A99C
relative integration efficiency (log2) [2]: -6.27 ± 1.8

CG C55A T56G T57G A58C
relative integration efficiency (log2) [2]: -2.14 ± 0.62

CG T108A A109T
relative integration efficiency (log2) [1]: -0.852 ± 0.53 | relative integration efficiency (log2) [2]: -0.848 ± 0.47

CG T78G
relative integration efficiency (log2) [1]: 0.198 ± 0.14 | relative integration efficiency (log2) [2]: -0.0793 ± 0.054

CG T78C
relative integration efficiency (log2) [1]: 0.27 ± 0.3 | relative integration efficiency (log2) [2]: -0.0794 ± 0.1

CG T78A
relative integration efficiency (log2) [1]: -0.0877 ± 0.12 | relative integration efficiency (log2) [2]: 0.0885 ± 0.016

CT A22C A23C G24T T76G A77C T78G A102C T104G
relative integration efficiency (log2) [1]: -4.26 ± 1.6 | relative integration efficiency (log2) [2]: -3.88 ± 1.4

CG T113A T114A G115C T116A
relative integration efficiency (log2) [1]: -0.0852 ± 0.079 | relative integration efficiency (log2) [2]: 0.0572 ± 0.12

CT A22C A23C T76G A77C A102C
relative integration efficiency (log2) [1]: -3.01 ± 0.15 | relative integration efficiency (log2) [2]: -3.81 ± 0.97

CG A19C T20G A21C A22C
relative integration efficiency (log2) [2]: -3.48 ± 1.4

CG T41A A44G A46G T48G A50G C52A A53T C55A T56C T57A A59T C60T
relative integration efficiency (log2) [2]: -4.27 ± 0.75

CG T84A
relative integration efficiency (log2) [1]: -0.0315 ± 0.47 | relative integration efficiency (log2) [2]: -0.0633 ± 0.033

CG T84C
relative integration efficiency (log2) [1]: -0.172 ± 0.0094 | relative integration efficiency (log2) [2]: -0.158 ± 0.056

CG T84G
relative integration efficiency (log2) [1]: -0.943 ± 0.55 | relative integration efficiency (log2) [2]: -0.591 ± 0.3

CG T108A
relative integration efficiency (log2) [1]: -1.1 ± 0.37 | relative integration efficiency (log2) [2]: -0.257 ± 0.48

CG T108G
relative integration efficiency (log2) [1]: -0.924 ± 0.023 | relative integration efficiency (log2) [2]: -0.684 ± 0.41

CG T108C
relative integration efficiency (log2) [1]: -0.173 ± 0.39 | relative integration efficiency (log2) [2]: -0.187 ± 0.35

CG T78A T79A G80C A81T
relative integration efficiency (log2) [1]: -1.07 ± 0.89 | relative integration efficiency (log2) [2]: -1.38 ± 0.59

CG T114A G115C T116A G117C
relative integration efficiency (log2) [1]: -0.217 ± 0.74 | relative integration efficiency (log2) [2]: -0.00788 ± 0.19

CG T116A G117C
relative integration efficiency (log2) [1]: 0.431 ± 0.71 | relative integration efficiency (log2) [2]: 0.161 ± 0.0064

CT A23C G24T A77C T78G T104G
relative integration efficiency (log2) [1]: -0.239 ± 0.088 | relative integration efficiency (log2) [2]: -0.527 ± 0.28

CG C49G A50T C52A A53T C55A T56C T57A A59T C61A A62C C63A A64G
relative integration efficiency (log2) [2]: -3.37 ± 1.4

CG T79A G80C
relative integration efficiency (log2) [1]: -1.35 ± 1.1 | relative integration efficiency (log2) [2]: -1.89 ± 0.83

AG T84G
relative integration efficiency (log2) [1]: -0.223 ± 1.1 | relative integration efficiency (log2) [2]: -0.407 ± 0.3
